Results: US10260068B2, “Prophylactic agent and therapeutic agent for fibrodysplasia ossificans progressiva” (Sumitomo Dainippon Pharma Co., Ltd., priority 2014, dated 2019)

Biological target: T1, wild type ACVR1 (Homo sapiens, UniProt Q04771)
T1 construct: an iPS cell line with the ACVR1 gene mutation repaired to the normal type (wild type) by gene repair by a BAC knockin vector; endogenous in cells; host or cells: mesenchymal stem cell-like cells differentiated from the gene-corrected iPS cell clone
T1 sequence (Q04771 21-509): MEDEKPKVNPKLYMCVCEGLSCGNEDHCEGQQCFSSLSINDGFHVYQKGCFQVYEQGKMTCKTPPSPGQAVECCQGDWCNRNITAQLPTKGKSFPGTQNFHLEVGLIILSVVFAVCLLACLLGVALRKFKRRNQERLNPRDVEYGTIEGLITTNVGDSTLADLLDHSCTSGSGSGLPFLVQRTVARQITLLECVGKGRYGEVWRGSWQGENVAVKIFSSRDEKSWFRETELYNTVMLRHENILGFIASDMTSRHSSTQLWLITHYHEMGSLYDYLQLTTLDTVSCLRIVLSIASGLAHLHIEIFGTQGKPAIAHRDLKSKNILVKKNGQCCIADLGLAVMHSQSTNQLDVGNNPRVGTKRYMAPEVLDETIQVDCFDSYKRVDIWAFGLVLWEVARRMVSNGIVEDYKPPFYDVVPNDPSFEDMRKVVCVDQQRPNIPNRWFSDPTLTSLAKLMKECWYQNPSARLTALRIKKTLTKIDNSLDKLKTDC
Experiment: ID1 gene promoter luciferase reporter in U2OS cells with transfer of wild type ACVR1
Format: cell-based
Conditions: 10 ng/mL, 20 hours

Substance: human activin A: Recombinant Human/Mouse/Rat Activin A (R&D Systems); homodimer of inhibin βA chains
- transcription activity via ACVR1 (ID1 gene promoter luciferase): not observed
